Source: the nanobody polyreactivity screen of Harvey et al. (2022)

Assay: yeast display, Sf9 membrane polyspecificity reagent, FACS + sequencing; frameworks hold sequencing errors
Outline: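 A nanobody's polyreactivity label depends on the gate it was sorted from. Yeast display cells were stained with 10% biotinylated, detergent-solubilized Sf9 membrane reagent for 1 hour at 4 °C, enriched on streptavidin microbeads and sorted by FACS. The low and high (top ~1%) gates were set on anti-HA fluorescence for expression and streptavidin fluorescence for reagent binding.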

Sequence | polyreactivity (PSR sort gate)
QVQLVESGGGLVQAGGSLRLSCAASGSIFYDYTMGWYRQAPGKERELVAAINSGGSTNYADSVKGRFTISRDNAKNTVYLQMNSLKPEDTAVYYCAAVRYNSRVSTTPSEMYYLGQGTQVTVSS | low polyreactivity
QVQLVESGGGLVQAGGSLRLSCAASGSTFYKNAMGWYRQAPGKERELVAGISRRGGRTYYADSVKGRFTISRDNAKNTVYLQMNSLKPEDTAVYYCNTGHEEDEYDYWGQGTQVTVSS | low polyreactivity
QVQLVESGGGLVQAGGSLRLSCAASGFIFRLYAMGWYRQAPGKERELVAAISTGGGRTYYADSVKGRFTFSGDNAKNTVYLQMNSLKPEDTADYDCNTLVEPHYDYWGQGTQVTVSS | high polyreactivity
QVQLVESGGGLVQAGGSLRLSCAASGSIFDSNAMGWYRQAPGKERELVAAITGSGTSTYDADSVKGRFTISRDNAKNTVYLQMNSLKPEDTAVYYCAAAPEYLTDHDYWGQGTQVTVSS | low polyreactivity
QVQLVESGGGLVQAGGSLRLSCAASGSIFDPYAMGWYRQAPGKERELVARISRSGGSTNYADSVKGRFTISRDNAKNTVYLQMNSLKPEDTAVYYCNTPSSREMDYWGQGTQVTVSS | low polyreactivity
QVQLVESGGGLVQAGGSLRLSCAASGSILGNYAMGWYRQAPGKEREVVAAISSSGRTSYADSVKGRFTISRDNAKNTVYLQMNSLKPEDTAVYYCNASNYIVLINDPDAAPWLYDYWGQGTQVTVSS | low polyreactivity
QVQLVESGGGLVQAGGSLRLSCAASGFIFYRYAMGWYRQAPGKEREFVASISGSGGRTYFADSVKGRFTISRDNAKNTVYLQMNSLKPEDTAVYYCNVVSKSRISQYVGYSYDYWGQGTQVTVSS | high polyreactivity
QVQLVESGGGLVQAGGSLRLSCAASGRIFTRNTMGWYRQAPGKERELVAAITSRGGSTYYADSVKGRFTISRDNAKITVYLQMNSLKPEETAVYYCAADIPRYYYYWGQGTQVTVSS | high polyreactivity
QVQLVESGGGLVQAGGSLRLSCAASGFIFPYYAMGWYRQAPGKEREFVAAITFSATRTYYADSVKGRFTISRDNAKNTVYLQMNSLKPEDTAVYYCNARGGVYGSYFEFNYWGQGTQVTVSS | low polyreactivity
QVQLVESGGGLVQAGGSLRLSCAASGSTFQSNAMGWYRQAPGKERELVATITQSGATTYYADSVKGRFTISRDNAKNTVYLQMNSLKPEDTAVYYCNVDTYQKRWFWLDLDGGYWGQGTQVTVSS | low polyreactivity
QVQLVESGGGLVQAGGSLRLSCSASGSTFVTNVIGWYRQAPGKERELVAAISYSGGNTYYEDSVKGRFTISRDNAKNTVYLQMNSLKPEDTAVYYCAASYKPFKKMGYWGQGTQVTVSS | high polyreactivity
QVPLVESGGGLVQAGGSLRLSCAASGSIFYTNAMGWSIPAPGKERELVARLSSSSGRTYYADSVKGRFPISRDNAKNTVYLKMKSLIPDYTAVYYCAARYLLRRHTNMDYWGHGTQVTVSS | high polyreactivity
QVQIVESGGGLVQAGGSLRLSCAASGTFSFYAMGWYRQAPGKERELVATIRSGGRTYYADSVKGRFTISRDNAKNTVYLQMNSLKPEDTAVYYCAKTGFLGLRQYGYWGQGTQVTVSS | high polyreactivity
QVQLVESGGGLVQAGGSLRLSCAASGRIFNGYAMGWYRQAPGKERELVARISKRGGRTYYADSVKGRFTISRDNAKNTVYLQMNSLKPEDTAVYYCNAVPRVTRPSAVEEYDYWGQGTQVTVSS | high polyreactivity
QVKLVESGRGLVHAGGSLRLSSAASANTFPPNARGCYIPAPGKERELVSAISRSGVSTYYADSVKGRFTISRDNANNTVYLQMNSLKPEDTAVYYCAAPLIYTPLKYHYWGQGTQVTVSS | low polyreactivity
QDQLVESGGGLVQAGGSLRLSCAASGYTFRYAMGWNIQAPGKERELVAGITSSGGSTYYADSVKGRFTISRDNAKNTVYLQMNSLKPEDTAVYYCNADFFVWLYPHYLIFDYWGQGTQVTVSS | low polyreactivity
QVQLVESGGGLVQAGGSLRLSCAASGRIFVRNAMGWYRQAPGKEREMVAAISASGGSTYYADSVKGRFTISRDNAKNTVYLLMNSLKPEDTAVYYCNAYRAYYDLAYGYWGQGTQVTVSS | high polyreactivity
QVQLLESGGGLVQAGGSLRLSCAASGSSFSHYTMGWYRQAPGKERELVAAINYGGASTYYADSVKGRFTISRDNAKNTVYLQMNSLKPEYTAVYYCAAANRPSEQDNYWGQGTQVTVSS | low polyreactivity
QVQLVESGGGLVQAGGSLRLSCAASGRIFARNAMGWYRQAPGKERELVATIRVGGGSTYYADSVKGRFTISRDNAKNTVYLQMNSLKPEDTAVYSCAVRQLYSYPGDRRGYYWGQGTQVTVSS | low polyreactivity
QVQLVESGGGLVQAGGSLRLSCAASGNTFGPYDMGWYRQSPGKERELVAGITSGGSTYYADSVKGRFTISRDNAKNTVYLQMNSLKPEDTAVYYCAADDYLWVYWYDYWGQGTQVTVSS | high polyreactivity
QVQLVESGGGLVQAGGSLRLSCAASGSTFDIYAMGWYRQAPGKERELVAAISNSGDTYYADSVKGRFTISRDNAKNTVYLQMNSLKPEDTAVYYCNADFHDWFDYWGQGTQVTVSS | high polyreactivity
QVQLVESGGGLVQAGGSLRLSCAASGFTFLYYDMGWYRPAPGKERELVAAITSSGTSTYYADSVKGRFTISRDNAKNSVYLQMNSLKPEDTAVYYCAVLYTYAGRHRYGYWGQGTQVTVSS | high polyreactivity

Sequence | polyreactivity (PSR sort gate)
QVQLVESGGGLVQAGGSLRLSCAASGRTYSIYAMGLYRQEPGNEREMVAAISNGGRTKYADSVKGRFTISRDNAKNTVYLQMNSLKPEDTAVYYCAASSYTNKRYPSPYDYWGQGTQVTVSS | high polyreactivity
QVQLVESGGGLVQAGGSLRLSCAASGLIFTVNTMGWYRQAPGKERELVATIHTIGDGTNYADSVKGRFTISRDNAKNTVYLQMNSLKPEDTAVYYCAAYAGSVRPGDLYGYDYWGQGTQVTVSS | low polyreactivity
QVQLVESGGGLVQAGGSLRLSCAASGSTFYNAMGWYRQAPGKERELVAAITRSGGSTYYADSVKGRFTISRDNAKNTVYLQMNSLKPEDTAVYYCAAKSIIRPSAPRRDDMDYWGQGTQVTVSS | low polyreactivity
QVQLVESGGGLVQAGGSLRLSCAASGFIFQGYAMGWYRQAHGKEREFVAAITTSGGTTYYADSVKGSFTISRDNAKNTVYLQKNSLKPEDTAVYYCAARGATVSTRIYGYWGQGPQVTVSS | high polyreactivity
QVQLVESGGGLVQAGGSLRLSCAASGRTLYRYAMGWYRQAPGKERELVAAIRSGGRTNYSDSVKGRFTISRDNAKNTVYLQMNSLKPEDTAVYYCAARTLRYPSTYDYWGQGTQVTVSS | high polyreactivity
QVQLVESGGGLVQAGGSLRLSCDASGRIFSRYAIGWYRQAPGKERELVAAITQSGTSTYYADSVKGRFTISRDNAKNTVYLQMNSLNPEDTAVYYCNAYRQYRYDYWGQGTQVTVSS | low polyreactivity
QVQLVSSGGRLVQSGGSLRLSCAASGRTFYPYAMGWYRQAPGKERELVAGIRNSGTSTYYADSVKGRFTISRDNAKNTVYLQMNSLKPEVTAVYYCNARGYRNRGYGYDSWGQGTQVTVSS | high polyreactivity
QVQLVESGGGLVQAGGSLRLSCAASGSIFGSNAMGWYRQAPGKERELVAAITESGGDTYYADSVKGRFTISRDNAKNTVYLQMNSLKPEDTAVYYCAARYFGVIVDVSLFREYGSWGQGTQVTVSS | low polyreactivity
QVQLVESGGGIVQAGGSLRLSCAASGRHFYTNAMGWYRQAPGKERELVATISGSVGNTYYEDSVKGRFTISRDNAKNTVYLQMNSLKPEDTAVYYCAKAYYTPYGVYVLHYYWGQGTQVTVSS | high polyreactivity
QVQLVESGGGLVQAGGRLRLSCAASGSTFHYYAMGWDRQAPGKERELVAAISQSGSGTYYADSVKGLFTISRDNAKKTVYLQMNSLKPEDTAVYYCAKDITGLSRYRRDYWGQGTQVTVSS | low polyreactivity
QVQLVESGGGLVQAGGSLRLSCAASGSTIRNYAMGWYRQAPGKERELVAAISSGGRTYYADSVKGRFTISRDNAKNTVYLQMNSLKPEDTAVYYCNTPYTVRGRYTYDYWGQGTQVTVSS | high polyreactivity
QVQLVESGGGLVQAGGSLRLSCAASGFTFGYYAMGWYRQAPGKERELVAAITWSGGRTYYADSVKGRFTISRDNAKNTVYLQMNSLKPEDTAVYYCAVETLWQGSEYWGQGTQVTVSS | low polyreactivity
QVQLVESGGGLVQAGGSLRLSCAASGRTFFRYAMGWYRQAPGKERELVAAISRSGGGTYYADSVKGRFTISRDNAKNTVYLQMNSLKPEDTAVYYCNRDDYSRNHVYEFDYWGQGTQVTVSS | low polyreactivity
QVQLVESGGGLVQAGGSLRLSCAASGSTFSTYDMGWYRQAPGKEREFVAAISDSGGSTYYADSVKGRFTISRDNAKNTVYLQMNSLKPEDTAVYYCNATVVFVQYVDYDYWGQGTQVTVSS | low polyreactivity
QVQLVESGGWLVQAGGSLRLRCAASGRIFSRYAMGWYRQAPGKEWELVAAISWSGGSTYYADSVKGRFTISRDNAKNTVYLQMNSLKPEDTAVYYCAAKRQYTEYNYWGQGSQVTVSS | high polyreactivity
QVQLVESVGGLVQAGGSLRLSCSASGLIFYDYDMGWYRQAPGKERELVAAISNDASTYYAHSVKGRFTISRDNAKNTVYFQMNSLKTEDTAVYFCAAEPYVFGLSSKPFWYNYWGQGTQVTVSS | low polyreactivity
QVQLVESGGGLVQAGRSLRLSCAASGITFTGYALGWSRQATGKERELVAAISKRGARTYYADSVKGRFTISRDNAKNTVYLQMNSLKPEDTAVYYCAADSTAQDIAGLYYWGQGTQVTVSS | high polyreactivity
QVQLVESGGGLVQAGGSLRLSCADSGRIFVGNAMGWYRQAHGKERELVAAITSSGGSTYYADSVKGRFTISRDNAKNTVYLQMNSLKPEDTAVYYCAARVPYRLKAQPFSNRGYYWGQGTQVTVSS | high polyreactivity
QVQLVESGAGLFQAGGSLRLSCAASGSTFVSYAMGWYRQAPGKEREFVAAITWSGGSTYYADSVKGRFTISRDNAKNTVYLQMNSLKPEDTAVYYCARPYRGSPRYYYWGQGTQVTVSS | high polyreactivity
QVQLVESGGGLVQAGGSLRLSCAASGFTFGLYGMGWYRQAPGKERELVAAISSSGGDTYYADSVKGRFTISRDNAKNTVYLQMNSLKPEDTAVYYCAATADWATYDYWGQGTQVTVSS | low polyreactivity
QVQLVESGGGLVQAGGSLRLSCAASGRIFRKYTMGWYRQAPGKERELVAAISRNGGDTYYADSVKGRFTISRDNAKNTVYLQMHSLKPEDPAVYYCNARTPPDSTHFAYWGQGTQVTVSS | low polyreactivity
